Drawing on patent US20190105401A1, this text covers IKK-β protein expression level, shRNA vector control Caco-2 cells infected with the WT strain, increase over uninfected and p65 protein expression level, shRNA vector control Caco-2 cells infected with the WT strain, increase over uninfected for one substance.

In the experiment the target is Hsp60 (chaperonin 60) of human Caco-2 cells (human) (UniProt P10809). The experiment can be described thus: cell-based or functional assay.
Hsp60 (chaperonin 60) of human Caco-2 cells (human), sequence (P10809 27-573): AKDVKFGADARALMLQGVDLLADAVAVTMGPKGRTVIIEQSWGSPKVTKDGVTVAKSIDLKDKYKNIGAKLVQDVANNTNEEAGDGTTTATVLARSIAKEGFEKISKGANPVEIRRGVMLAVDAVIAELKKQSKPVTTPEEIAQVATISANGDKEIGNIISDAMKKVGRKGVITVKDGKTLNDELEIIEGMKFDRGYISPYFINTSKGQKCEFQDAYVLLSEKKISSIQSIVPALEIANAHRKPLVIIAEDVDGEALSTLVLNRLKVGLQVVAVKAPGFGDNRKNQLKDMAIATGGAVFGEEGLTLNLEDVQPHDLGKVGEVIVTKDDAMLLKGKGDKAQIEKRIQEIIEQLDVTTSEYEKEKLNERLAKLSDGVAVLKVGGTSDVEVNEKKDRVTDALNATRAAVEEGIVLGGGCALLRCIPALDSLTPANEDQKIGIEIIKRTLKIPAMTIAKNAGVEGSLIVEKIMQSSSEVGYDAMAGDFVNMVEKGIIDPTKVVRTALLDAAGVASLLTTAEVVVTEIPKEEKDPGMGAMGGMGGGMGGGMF

Substance “Listeria adhesion protein (LAP) on L. monocytogenes F4244 (WT) bacteria (ligand)” came in with an IKK-β protein expression level, shRNA vector control Caco-2 cells infected with the WT strain, increase over uninfected of 54% and a p65 protein expression level, shRNA vector control Caco-2 cells infected with the WT strain, increase over uninfected of 62%.
